# Reference: publication PMC5682033, “An Oleuropein β-Glucosidase from Olive Fruit Is Involved in Determining the Phenolic Composition of Virgin Olive Oil” (Frontiers in Plant Science, 2017)
# B1: OepGLU (recombinant olive β-glucosidase) (Olea europaea) (protein)
# chain: MDIQSNVLTITSGSSPTDTSSNGQAAKSTKERIKRSDFPSDFVFGAATASYQVEGAWNEGGKGMSNWDYFTQSQPGGISDFSNGTIAIDHFNMFKDDVVVMKKLGLKAYRFSLSWPRILPGGRLCHGVSKEGVQFYNDLIDALLAADIEPYITIFHWDIPQCLQLEYGGFLHERVVQDFIEYSEICFWEFGDRVKYWITLNEPWSFTVQGYVAGAFPPNRGVTPKDTEETKKHARLHRGGGKLLTAFKYGNPGTEPYKVAHNLILCHAHAVDIYRTKYQESQGGKIGITNCISWNEPLTDSQEDKDAATRGNDFMLGWFVEPVVTGEYPESMIKNVGDRLPKFSEKEEKLVKGSYDFLGINYYTSTYTSDDPTKPTTDSYLTDSRTKTSHERNKVPIGAQAGSDWLYIVPWGIYRVMVDMKKRYNDPVIYITENGVDEVNDKSKTSTEALKDDIRIHYHQEHLYYLKLAMDQGVNLKGYFIWSLFDNFEWAAGFSVRFGVMYVDYANGRYTRLPKRSAVWWRNFLTKPTAVPLKNEPEKSEDRRKRLRGST
# Substrate: C/C=C1/[C@H](O[C@@H]2O[C@H](CO)[C@@H](O)[C@H](O)[C@H]2O)OC=C(C(=O)OC)[C@H]1CC(=O)OCCc1ccc(O)c(O)c1
# Test: HPLC determination of hydrolysed oleuropein
# Format: biochemical, Olea europaea
# Settings: free purified recombinant enzyme; standard assay
protein,measurement,value
B1,Km,26.8 mM
